In US20260063625A1, “COMPOSITIONS FOR AND METHODS OF DETECTING FOOD TOXINS” (priority 2022, published 2026):

Assay: Fluorescence polarization (FP) binding to fluorescein labeled STX
Details: […]G = RT ln (KdSxph mutant/KdSxph); T = 298K
Protocol: […]; Measurements were performed at 25° C. on a Synergy H1 microplate reader (BioTek) using the polarization filter setting (excitation 485 nm, emission 528 nm). […]. The dissociation constants were calculated using GraphPad Prism by fitting fluorescence millipolarization (mP=P·10^−3, where P is polarization) as a function of Sxph concentration using the equation: P={(Pbound−Pfree) [Sxph]/(Kd+[Sxph])}+Pfree, where P is the polarization measured at a given Sxph concentration, Pfree is the […], and Pbound is the maximum polarization of Sxph bound by F-STX (Rossi and Taylor, Hansen et al.).

Molecule | […]G (kcal mol^−1) relative to wild-type RcSxph
F784S: RcSxph mutant F784S (protein) MAPTFQTALFFTIISLSFAAPNAKQVRWCAISDLEQKKCNDLVGSCNVPDITLVCVLRSSTEDCMTAIKDGQADAMFLDSGEVYEASKDPYNLKPIIAEPYSSNRDLQKCLKERQQALAKKMIGHYIPQCDEKGNYQPQQCHGSTGHCWCVNAMGEKISGTNTPPGQTRATCERHELPKCLKERQVALGGDEKVLGRFVPQCDEKGNYEPQQFHGSTGYSWCVNAIGEEIAGTKTPPGKIPATCQKHDLVTTCHYAVAMVKKSSAFQFNQLKGKRSCHSGVSKTDGWKALVTVLVEKKLLSWDGPAKESIQRAMSKFFSVSCIPGATQTNLCKQCKGEEGKNCKNSHDEPYYGNYGAFRCLKEDMGDVAFLRSTALSDEHSEVYELLCPDNTRKPLNKYKECNLGTVPAGTVVTRKISDKTEDINNFLMEAQKRQCKLFSSAHGKDLMFDDSTLQLALLSSEVDAFLYLGVKLFHAMKALTGDAHLPSKNKVRWCTINKLEKMKCDDWSAVSGGAIACTEASCPKGCVKQILKGEADAVKLEVQYMYEALMCGLLPAVEEYHNKDDFGPCKTPGSPYTDFGTLRAVALVKKSNKDINWNNIKGKKSCHTGVGDIAGWVIPVSLIRRQNDNSDIDSFFGESCAPGSDTKSNLCKLCIGDPKNSAANTKCSLSDKEAYYGNQGAFRCLVEKGDVAFVPHTVVFENTDGKNPAVWAKNLKSEDFELLCLDGSRAPVSNYKSCKLSGIPPPAIVTREESISDVVRIVANQQSLYGRKGFEKDMFQLFSSNKGNNLLFNDNTQCLITSDRQPKDIMEDYFGKPYYTTVYGASRSAMSSELISACTIKHC | 3.60 kcal/mol
Q787E: RcSxph mutant Q787E (protein) MAPTFQTALFFTIISLSFAAPNAKQVRWCAISDLEQKKCNDLVGSCNVPDITLVCVLRSSTEDCMTAIKDGQADAMFLDSGEVYEASKDPYNLKPIIAEPYSSNRDLQKCLKERQQALAKKMIGHYIPQCDEKGNYQPQQCHGSTGHCWCVNAMGEKISGTNTPPGQTRATCERHELPKCLKERQVALGGDEKVLGRFVPQCDEKGNYEPQQFHGSTGYSWCVNAIGEEIAGTKTPPGKIPATCQKHDLVTTCHYAVAMVKKSSAFQFNQLKGKRSCHSGVSKTDGWKALVTVLVEKKLLSWDGPAKESIQRAMSKFFSVSCIPGATQTNLCKQCKGEEGKNCKNSHDEPYYGNYGAFRCLKEDMGDVAFLRSTALSDEHSEVYELLCPDNTRKPLNKYKECNLGTVPAGTVVTRKISDKTEDINNFLMEAQKRQCKLFSSAHGKDLMFDDSTLQLALLSSEVDAFLYLGVKLFHAMKALTGDAHLPSKNKVRWCTINKLEKMKCDDWSAVSGGAIACTEASCPKGCVKQILKGEADAVKLEVQYMYEALMCGLLPAVEEYHNKDDFGPCKTPGSPYTDFGTLRAVALVKKSNKDINWNNIKGKKSCHTGVGDIAGWVIPVSLIRRQNDNSDIDSFFGESCAPGSDTKSNLCKLCIGDPKNSAANTKCSLSDKEAYYGNQGAFRCLVEKGDVAFVPHTVVFENTDGKNPAVWAKNLKSEDFELLCLDGSRAPVSNYKSCKLSGIPPPAIVTREESISDVVRIVANQQSLYGRKGFEKDMFQLFSSNKGNNLLFNDNTQCLITFDREPKDIMEDYFGKPYYTTVYGASRSAMSSELISACTIKHC | -0.09 kcal/mol
Y558F: RcSxph mutant Y558F (protein) MAPTFQTALFFTIISLSFAAPNAKQVRWCAISDLEQKKCNDLVGSCNVPDITLVCVLRSSTEDCMTAIKDGQADAMFLDSGEVYEASKDPYNLKPIIAEPYSSNRDLQKCLKERQQALAKKMIGHYIPQCDEKGNYQPQQCHGSTGHCWCVNAMGEKISGTNTPPGQTRATCERHELPKCLKERQVALGGDEKVLGRFVPQCDEKGNYEPQQFHGSTGYSWCVNAIGEEIAGTKTPPGKIPATCQKHDLVTTCHYAVAMVKKSSAFQFNQLKGKRSCHSGVSKTDGWKALVTVLVEKKLLSWDGPAKESIQRAMSKFFSVSCIPGATQTNLCKQCKGEEGKNCKNSHDEPYYGNYGAFRCLKEDMGDVAFLRSTALSDEHSEVYELLCPDNTRKPLNKYKECNLGTVPAGTVVTRKISDKTEDINNFLMEAQKRQCKLFSSAHGKDLMFDDSTLQLALLSSEVDAFLYLGVKLFHAMKALTGDAHLPSKNKVRWCTINKLEKMKCDDWSAVSGGAIACTEASCPKGCVKQILKGEADAVKLEVQYMYEALMCGLLPAVEEYHNKDDFGPCKTPGSPFTDFGTLRAVALVKKSNKDINWNNIKGKKSCHTGVGDIAGWVIPVSLIRRQNDNSDIDSFFGESCAPGSDTKSNLCKLCIGDPKNSAANTKCSLSDKEAYYGNQGAFRCLVEKGDVAFVPHTVVFENTDGKNPAVWAKNLKSEDFELLCLDGSRAPVSNYKSCKLSGIPPPAIVTREESISDVVRIVANQQSLYGRKGFEKDMFQLFSSNKGNNLLFNDNTQCLITFDRQPKDIMEDYFGKPYYTTVYGASRSAMSSELISACTIKHC | -0.10 kcal/mol
F784A: RcSxph mutant F784A (protein) MAPTFQTALFFTIISLSFAAPNAKQVRWCAISDLEQKKCNDLVGSCNVPDITLVCVLRSSTEDCMTAIKDGQADAMFLDSGEVYEASKDPYNLKPIIAEPYSSNRDLQKCLKERQQALAKKMIGHYIPQCDEKGNYQPQQCHGSTGHCWCVNAMGEKISGTNTPPGQTRATCERHELPKCLKERQVALGGDEKVLGRFVPQCDEKGNYEPQQFHGSTGYSWCVNAIGEEIAGTKTPPGKIPATCQKHDLVTTCHYAVAMVKKSSAFQFNQLKGKRSCHSGVSKTDGWKALVTVLVEKKLLSWDGPAKESIQRAMSKFFSVSCIPGATQTNLCKQCKGEEGKNCKNSHDEPYYGNYGAFRCLKEDMGDVAFLRSTALSDEHSEVYELLCPDNTRKPLNKYKECNLGTVPAGTVVTRKISDKTEDINNFLMEAQKRQCKLFSSAHGKDLMFDDSTLQLALLSSEVDAFLYLGVKLFHAMKALTGDAHLPSKNKVRWCTINKLEKMKCDDWSAVSGGAIACTEASCPKGCVKQILKGEADAVKLEVQYMYEALMCGLLPAVEEYHNKDDFGPCKTPGSPYTDFGTLRAVALVKKSNKDINWNNIKGKKSCHTGVGDIAGWVIPVSLIRRQNDNSDIDSFFGESCAPGSDTKSNLCKLCIGDPKNSAANTKCSLSDKEAYYGNQGAFRCLVEKGDVAFVPHTVVFENTDGKNPAVWAKNLKSEDFELLCLDGSRAPVSNYKSCKLSGIPPPAIVTREESISDVVRIVANQQSLYGRKGFEKDMFQLFSSNKGNNLLFNDNTQCLITADRQPKDIMEDYFGKPYYTTVYGASRSAMSSELISACTIKHC | 2.71 kcal/mol
I782F: RcSxph mutant I782F (protein) MAPTFQTALFFTIISLSFAAPNAKQVRWCAISDLEQKKCNDLVGSCNVPDITLVCVLRSSTEDCMTAIKDGQADAMFLDSGEVYEASKDPYNLKPIIAEPYSSNRDLQKCLKERQQALAKKMIGHYIPQCDEKGNYQPQQCHGSTGHCWCVNAMGEKISGTNTPPGQTRATCERHELPKCLKERQVALGGDEKVLGRFVPQCDEKGNYEPQQFHGSTGYSWCVNAIGEEIAGTKTPPGKIPATCQKHDLVTTCHYAVAMVKKSSAFQFNQLKGKRSCHSGVSKTDGWKALVTVLVEKKLLSWDGPAKESIQRAMSKFFSVSCIPGATQTNLCKQCKGEEGKNCKNSHDEPYYGNYGAFRCLKEDMGDVAFLRSTALSDEHSEVYELLCPDNTRKPLNKYKECNLGTVPAGTVVTRKISDKTEDINNFLMEAQKRQCKLFSSAHGKDLMFDDSTLQLALLSSEVDAFLYLGVKLFHAMKALTGDAHLPSKNKVRWCTINKLEKMKCDDWSAVSGGAIACTEASCPKGCVKQILKGEADAVKLEVQYMYEALMCGLLPAVEEYHNKDDFGPCKTPGSPYTDFGTLRAVALVKKSNKDINWNNIKGKKSCHTGVGDIAGWVIPVSLIRRQNDNSDIDSFFGESCAPGSDTKSNLCKLCIGDPKNSAANTKCSLSDKEAYYGNQGAFRCLVEKGDVAFVPHTVVFENTDGKNPAVWAKNLKSEDFELLCLDGSRAPVSNYKSCKLSGIPPPAIVTREESISDVVRIVANQQSLYGRKGFEKDMFQLFSSNKGNNLLFNDNTQCLFTFDRQPKDIMEDYFGKPYYTTVYGASRSAMSSELISACTIKHC | 0.46 kcal/mol
D785A: RcSxph mutant D785A (protein) MAPTFQTALFFTIISLSFAAPNAKQVRWCAISDLEQKKCNDLVGSCNVPDITLVCVLRSSTEDCMTAIKDGQADAMFLDSGEVYEASKDPYNLKPIIAEPYSSNRDLQKCLKERQQALAKKMIGHYIPQCDEKGNYQPQQCHGSTGHCWCVNAMGEKISGTNTPPGQTRATCERHELPKCLKERQVALGGDEKVLGRFVPQCDEKGNYEPQQFHGSTGYSWCVNAIGEEIAGTKTPPGKIPATCQKHDLVTTCHYAVAMVKKSSAFQFNQLKGKRSCHSGVSKTDGWKALVTVLVEKKLLSWDGPAKESIQRAMSKFFSVSCIPGATQTNLCKQCKGEEGKNCKNSHDEPYYGNYGAFRCLKEDMGDVAFLRSTALSDEHSEVYELLCPDNTRKPLNKYKECNLGTVPAGTVVTRKISDKTEDINNFLMEAQKRQCKLFSSAHGKDLMFDDSTLQLALLSSEVDAFLYLGVKLFHAMKALTGDAHLPSKNKVRWCTINKLEKMKCDDWSAVSGGAIACTEASCPKGCVKQILKGEADAVKLEVQYMYEALMCGLLPAVEEYHNKDDFGPCKTPGSPYTDFGTLRAVALVKKSNKDINWNNIKGKKSCHTGVGDIAGWVIPVSLIRRQNDNSDIDSFFGESCAPGSDTKSNLCKLCIGDPKNSAANTKCSLSDKEAYYGNQGAFRCLVEKGDVAFVPHTVVFENTDGKNPAVWAKNLKSEDFELLCLDGSRAPVSNYKSCKLSGIPPPAIVTREESISDVVRIVANQQSLYGRKGFEKDMFQLFSSNKGNNLLFNDNTQCLITFARQPKDIMEDYFGKPYYTTVYGASRSAMSSELISACTIKHC | 0.57 kcal/mol
